Test results: paper PMC10603135, “Phosphorylation-dependent pseudokinase domain dimerization drives full-length MLKL oligomerization” (Nature Communications, 2023)

Tests used:
[1] = biological target: MLKL (mixed lineage kinase domain-like) pseudokinase domain, 190-471 (UniProt Q8NB16); test: size-exclusion chromatography; details: reference: p-MLKL pseudokinase domain; sites T357,S358,T355,S360
[2] = biological target: full-length human MLKL (residues 2-471) T357E/S358E mutant (human) (UniProt Q8NB16); test: SEC; full-length MLKL (WT or T357E/S358E) co-expressed with RIPK3 kinase domain in Sf21, purified by GST on MLKL, tag cleaved, HiLoad Superdex 200 in SEC buffer; fractions on reducing SDS-PAGE
[3] = biological target: phosphorylated human MLKL (p-MLKL) pseudokinase domain (190-471) (human) (UniProt Q8NB16); test: SEC; purified pseudokinase domain on Superdex 200 in 20 mM HEPES pH 7.5, 200 mM NaCl, 5% v/v glycerol
[4] = biological target: phosphorylated human MLKL (p-MLKL) pseudokinase domain (190-471) (human) (UniProt Q8NB16); test: SEC-SAXS; p-MLKL pseudokinase domain, 40 uL of 7.2 mg/mL, inline Superdex 200 Increase 5/150, 0.2 M NaCl, 20 mM HEPES pH 7.5, 5% v/v glycerol, 283 K
[5] = biological target: unphosphorylated human MLKL pseudokinase domain (residues 190-471) (human) (UniProt Q8NB16); test: SEC-SAXS; MLKL pseudokinase domain:Mb27 complex pre-purified on Superdex 75, 50 uL of 5.6 mg/mL, inline Superdex 200 Increase 5/150, 0.2 M NaCl, 20 mM HEPES pH 7.5, 5% v/v glycerol, 283 K
[6] = biological target: the molecule itself; test: SEC; full-length MLKL expressed alone in Sf21, purified, HiLoad Superdex 200 in SEC buffer
[7] = biological target: the molecule itself; test: SEC; full-length MLKL (WT or T357E/S358E) co-expressed with RIPK3 kinase domain in Sf21, purified by GST on MLKL, tag cleaved, HiLoad Superdex 200 in SEC buffer; fractions on reducing SDS-PAGE

MLKL (mixed lineage kinase domain-like) pseudokinase domain, 190-471 (from UniProt Q8NB16) λ phosphatase treated p-MLKL
binding against the reference [1]: lost

human RIPK3 kinase domain (residues 1-316; C3S, C110A), co-expressed with full-length MLKL (from UniProt Q9Y572 1-316) (domain or fragment)
stoichiometry N (RIPK3 per MLKL (1:1)) [2]: 1

phosphorylated human MLKL (p-MLKL) pseudokinase domain (190-471) (from UniProt Q8NB16 190-471) (domain or fragment)
stoichiometry N [3]: 2
stoichiometry N [4]: 2

unphosphorylated human MLKL pseudokinase domain (residues 190-471) (from UniProt Q8NB16 190-471) (domain or fragment)
stoichiometry N [5]: 2

B1: recombinant full-length human MLKL (residues 2-471), wild-type (natural protein, UniProt Q8NB16 2-471, looked up)
chain: ENLKHIITLGQVIHKRCEEMKYCKKQCRRLGHRVLGLIKPLEMLQDQGKRSVPSEKLTTAMNRFKAALEEANGEIEKFSNRSNICRFLTASQDKILFKDVNRKLSDVWKELSLLLQVEQRMPVSPISQGASWAQEDQQDADEDRRAFQMLRRDNEKIEASLRRLEINMKEIKETLRQYLPPKCMQEIPQEQIKEIKKEQLSGSPWILLRENEVSTLYKGEYHRAPVAIKVFKKLQAGSIAIVRQTFNKEIKTMKKFESPNILRIFGICIDETVTPPQFSIVMEYCELGTLRELLDREKDLTLGKRMVLVLGAARGLYRLHHSEAPELHGKIRSSNFLVTQGYQVKLAGFELRKTQTSMSLGTTREKTDRVKSTAYLSPQELEDVFYQYDVKSEIYSFGIVLWEIATGDIPFQGCNSEKIRKLVAVKRQQEPLGEDCPSELREIIDECRAHDPSVRPSVDEILKKLSTFSK
notes: human MLKL, called full-length, residues 2-471; Expressed alone it elutes primarily as monomers with a smaller proportion of tetramers; with Mb27 all as tetramers; also called full-length MLKL; MLKL alone; source: Sf21 insect cells, expressed alone or co-expressed with Mb27, purified (glutathione resin, TEV cleavage, SEC); not shown: GST, N-terminal, cleaved
stoichiometry N [6]: 4

B2: full-length human p-MLKL tetramer (wild-type MLKL 2-471 co-expressed with RIPK3 kinase domain) (natural protein, UniProt Q8NB16 2-471, looked up)
chain: B1 chain
modifications: phosphorylated by co-expressed RIPK3 (sites not printed for the full-length protein); disulfide-linked via C184
notes: human MLKL, called full-length, residues 2-471; The purified tetramer carries sub-stoichiometric RIPK3 kinase domain; also called wild-type p-MLKL tetramer; MLKL (WT):RIPK3; source: Sf21 insect cells, co-expressed with RIPK3 kinase domain, purified (glutathione resin, TEV cleavage, SEC); not shown: GST, N-terminal, cleaved
stoichiometry N [7]: 4
